Experiment [1] concerns the target TIM-1 antigen, cell membrane-bound (on ACHN, CAKI-2, CAKI-1 renal cancer cells and polarized/activated human CD4+ T cells) (human) (UniProt Q96D42). Kind of experiment: FACS on activated T cells, Day 1, +MMPI.
For experiment [2] the target is unchanged. Kind of experiment: FACS on activated T cells, Day 2, +MMPI.
Experiment [3] shares this target. Kind of experiment: FACS on activated T cells, Day 5, +MMPI.
Experiment [4] shares this target. The experiment is described as follows: FACS on activated T cells, Day 0, +MMPI.
For experiment [5] the target is unchanged. The experiment is described as follows: FACS on activated T cells, Day 4, +MMPI.
The target is the same in experiment [6]. The experiment is described as follows: FACS on activated T cells, Day 5, -MMPI.
For experiment [7] the target is unchanged. Kind of experiment: FACS on activated T cells, Day 1, -MMPI.
For experiment [8] the target is unchanged. Kind of experiment: FACS on activated T cells, Day 4, -MMPI.
Experiment [9] shares this target. Kind of experiment: FACS on activated T cells, Day 0, -MMPI.
Experiment [10] shares this target. The experiment is described as follows: FACS on activated T cells, Day 2, -MMPI.

Sequence of TIM-1 antigen, cell membrane-bound (on ACHN, CAKI-2, CAKI-1 renal cancer cells and polarized/activated human CD4+ T cells) (human) (Q96D42 21-364): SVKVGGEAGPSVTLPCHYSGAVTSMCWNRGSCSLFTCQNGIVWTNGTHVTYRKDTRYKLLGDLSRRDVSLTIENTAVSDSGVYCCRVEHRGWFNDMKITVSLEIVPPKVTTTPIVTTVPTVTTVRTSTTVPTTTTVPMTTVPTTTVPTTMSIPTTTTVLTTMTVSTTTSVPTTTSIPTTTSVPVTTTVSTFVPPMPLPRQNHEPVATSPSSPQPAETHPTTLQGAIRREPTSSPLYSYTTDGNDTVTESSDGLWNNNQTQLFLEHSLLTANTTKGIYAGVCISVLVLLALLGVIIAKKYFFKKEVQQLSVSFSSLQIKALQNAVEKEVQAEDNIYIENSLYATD

For the substance “isotype matched control mAb PK16.3 (antibody)”, the Percent of activated T cells that express TIM-1 (percent stained) in experiment [1] came to 2%; in experiment [2] it was 6%; in [3], 2%; in experiment [4], 1%; in [5] it was 2%; in experiment [6] it was 1%. Further, the Percent of activated T cells that express TIM-1 (percent stained) in experiment [7] was 3%; in [8], 1%; in experiment [9], 1%; in [10], 3%.
